Laboratory results from patent publication US20210032351A1 (XDCEXPLORER SHANGHAI, published 2021).
Numbering of substitutions follows the chain as printed. Where “and” joins values, the source holds several entries; their conditions need not be identical. Equal entries are not always repeated. Blank lines part the entries; values can stand above or below the molecule they belong to.

Columns and labels:
[1] = biological target: human EGFRvIII protein, full length, on transfected cells (human) (UniProt P00533); experiment: FACS, U87MG-hEGFRvIII 1D1 cells
[2] = biological target: human EGFRvIII protein, full length, on transfected cells (human) (UniProt P00533); experiment: FACS, 293F-hEGFRvIII 1D11 cells
[3] = biological target: human EGFRvIII protein, full length, on transfected cells (human) (UniProt P00533); experiment: FACS, U87MG-hEGFRvIII 2G2 cells
[4] = biological target: human EGFRvIII protein, full length, on transfected cells (human) (UniProt P00533); experiment: FACS, CHO-K1-hEGFRvIII 2D11 cells
[5] = biological target: human EGFRvIII protein, full length, on transfected cells (human) (UniProt P00533); experiment: FACS, 293F-hEGFRvIII 1C10 cells
[6] = biological target: human EGFRvIII protein, full length, on transfected cells (human) (UniProt P00533); experiment: FACS, U87MG-hEGFRvIII 1F9 cells
[7] = biological target: human EGFRvIII protein, full length, on transfected cells (human) (UniProt P00533); experiment: FACS, CHO-K1-hEGFRvIII 1G10 cells
[8] = biological target: human EGFRvIII protein, full length, on transfected cells (human) (UniProt P00533); experiment: FACS, CHO-K1-hEGFRvIII 1E3 cells
[9] = biological target: human EGFRvIII protein, full length, on transfected cells (human) (UniProt P00533); experiment: FACS, 293F-hEGFRvIII 1F3 cells
[10] = biological target: human EGFRvIII protein, full length, on transfected cells (human) (UniProt P00533); experiment: FACS, U87MG-hEGFRvIII 1B3 cells
[11] = biological target: human EGFRvIII protein, full length, on transfected cells (human) (UniProt P00533); experiment: FACS, U87MG-hEGFRvIII 2C6 cells
pep14 = biological target: T1, pep14 (cysteine pairing not given here); experiment: peptide dot matrix ELISA
T1 peptide: GSCVRACGADSYEMEEK(Biotin)

pep15 = biological target: T2, pep15 (cysteine pairing not given here); experiment: peptide dot matrix ELISA
T2 peptide: SCVRACGADSYEMEEDK(Biotin)

pep19 = biological target: T3, pep19; experiment: peptide dot matrix ELISA
T3 sequence (peptide, C-terminal K(Biotin)): ACGADSYEMEEDGVRKK

pep05 = biological target: T4, pep05 (cysteine pairing not given here); experiment: peptide dot matrix ELISA
T4 peptide: KGNYVVTDHGSCVRACK(Biotin)

[12] = biological target: T5, human EGFRvIII protein on the cell surface (human, UniProt P00533 25-1210); experiment: FACS on U87MG-hEGFRvIII cells
T5 construct: whole, on cells; the cell line is named under assay; also called hEGFRvIII; U87MG-hEGFRvIII

[13] = biological target: T6, human wild-type EGFR protein on the cell surface (human, UniProt P00533 25-1210); experiment: FACS on A431 cells; A431 cells (large amount of wild-type EGFR on the surface)
T6 construct: whole, on cells; Endogenous on A431, HEB, U87MG cells and normal human primary hepatocytes; transfected on CHOk1-EGFR cells; The cell is named under assay; also called A431; HEB
Procedure: The cells are washed twice with the HBSS buffer and are counted, and then the cells are diluted with the HBSS buffer to 2×10⁶ cells/ml, added with 1% goat serum blocking solution, with the percentage being the mass percentage, and incubated on ice for 30 minutes, and then centrifugally washed twice with the HBSS buffer. The collected cells are suspended to 2×10⁶ cells/mL with an FACS buffer (HBSS+1% BSA, with the percentage being the mass percentage), added to a 96-well FACS reaction plate at 100 μL/well, then added with 100 μL/well of the purified EGFRvIII antibody (samples to be tested) obtained in example 2, and incubated on ice for 2 hours. The plate is centrifugally washed twice with the FACS buffer, added with 100 μL/well of a fluorescence (Alexa 488) labeled secondary antibody (purchased from Invitrogen), and then incubated on ice for 1 hour. The plate is centrifugally washed 3 times with the FACS buffer, added with 100 μL/well of a fixing solution [4% (v/v) paraformaldehyde] for suspending the cells, and centrifugally washed twice with the FACS buffer after 10 minutes. The cells are suspended in 100 μL of the FACS buffer, and the results are detected and analyzed by FACS (FACS Calibur, purchased from BD). Data analysis is performed by using the software (CellQuest) to obtain the mean fluorescence intensity (MFI) of the cells. Data is further analyzed by using the software (GraphPad Prism5) to perform data fitting and calculate EC50. […] A431 cells (human epidermal cell cancer cell lines) have a large amount of wild-type EGFR protein expressed on the surface thereof. […] U87MG cells (human glioma cell lines) have a small amount of wild-type EGFR protein expressed on the surface thereof, while HEB cells (human glioma cell lines) have a high level of wild-type EGFR protein expression on the surface thereof.

[14] = biological target: T7, human EGFRvIII-hFc protein (human, UniProt P00533 25-645); experiment: ELISA, EGFRvIII-hFc coated
T7 construct: extracellular domain; also called immunogen A; hFc-tagged EGFRvIII protein; not shown: human IgG Fc fragment (hFc) of the pCpC vector

[15] = biological target: T7, human EGFRvIII-hFc protein; experiment: ELISA, EGFRvIII-hFc coated; remark: listed apart in the source
[16] = biological target: T5, human EGFRvIII protein on the cell …; experiment: FACS on U87MG-EGFRvIII cells
Outline: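 U87MG-EGFRvIII, A431 and primary human hepatocytes (2×10⁶ cells/mL, goat-serum blocked) were incubated with antibody on ice for 2 h, then with an Alexa 488 secondary (1:1000) for 1 h and fixed in 4% paraformaldehyde. Mean fluorescence intensity was read by flow cytometry, and EC50 was derived by curve fitting.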

[17] = biological target: human EGFRvIII-hFc protein (human) (UniProt P00533); experiment: ELISA, EGFRvIII-hFc coated
[18] = biological target: human wild-type EGFR protein on the cell surface (human) (UniProt P00533); experiment: FACS, MFI on A431 cells over MFI on normal primary hepatocytes
[19] = biological target: EGFR-his (purchased from Sino Biological) (UniProt P00533); experiment: BLI (OctetRED), antibody on anti-human Fc (AHC) biosensor, EGFR-his in solution
[20] = biological target: human wild-type EGFR protein on the cell surface (human) (UniProt P00533); experiment: FACS on A431 tumor cells
[21] = biological target: EGFRvIII-his (purchased from Sino Biological) (UniProt P00533); experiment: BLI (OctetRED), antibody on anti-human Fc (AHC) biosensor, EGFRvIII-his in solution
[22] = biological target: human wild-type EGFR protein on the cell surface (human) (UniProt P00533); experiment: FACS on normal human primary hepatocytes
[23] = biological target: human EGFRvIII protein on the cell surface (human) (UniProt P00533); experiment: FACS on U87MG-EGFRvIII cells

cell mean fluorescence intensity [1]: 3 | cell mean fluorescence intensity [2]: 3.6 | cell mean fluorescence intensity [3]: 1.8 | cell mean fluorescence intensity [4]: 1.8 | cell mean fluorescence intensity [5]: 4.3 | cell mean fluorescence intensity [6]: 1.7 | cell mean fluorescence intensity [7]: 2.4 | cell mean fluorescence intensity [8]: 2.4 | cell mean fluorescence intensity [9]: 4.1 | cell mean fluorescence intensity [10]: 2.3 | cell mean fluorescence intensity [11]: 1.8
Molecule: IgG subtype control (antibody)

EC50 [17]: 0.49 nM | Maximum OD450 value [17]: 3.41 OD450 | Selective window (MFI A431/Hepatocytes) [18]: 35.5 fold | Kd [19]: 205 nM | koff [19]: 0.00353 s⁻¹ | kon [19]: 17200 M⁻¹ s⁻¹ | MFI [20]: 9780 MFI | Kd [21]: 1.71 nM | koff [21]: 0.000141 s⁻¹ | kon [21]: 82800 M⁻¹ s⁻¹ | MFI [22]: 277 MFI | EC50 [23]: 4.93 nM | Maximum mean fluorescence intensity [23]: 18300 MFI
B3: Humanized antibody h75G7C6-1 (antibody, human IgG1, V domains shown)
VH: EVQLVQSGAEVKKPGASVKVSCKASGYTFTDYNMDWVKQAPGQGLEWIGDINPNNADTIYNQKFKGRVTLTVDKSTSTVYMELSSLRSEDTAVYYCARGDYDGYYPVYYAMDYWGQGTTVTVSS
VL: EIVLTQSPATLSLSPGERATLSCRASSSVSSSYLHWYQQKPGQAPRLLIYSTSNLAAGIPARFSGSGSGTDFTLTISSLEPEDFAVYYCQQYSGYPLTFGGGTKVEIK

EC50 [17]: 0.38 nM | Maximum OD450 value [17]: 3.38 OD450 | Selective window (MFI A431/Hepatocytes) [18]: 47 fold | Kd [19]: 200 nM | koff [19]: 0.00405 s⁻¹ | kon [19]: 20300 M⁻¹ s⁻¹ | MFI [20]: 11800 MFI | Kd [21]: 1.54 nM | koff [21]: 0.00014 s⁻¹ | kon [21]: 90600 M⁻¹ s⁻¹ | MFI [22]: 250 MFI | EC50 [23]: 5.67 nM | Maximum mean fluorescence intensity [23]: 18300 MFI
B4: Humanized antibody h75G7C6-2 (antibody, human IgG1, V domains shown)
VH: B3 VH
VL: B3 VL with I2N, Y50F, F72Y

The next lines start with the molecule.

B1: Chimeric antibody 63A10 (antibody, V domains shown)
VH: QVQLQQSGAELARPGASVKMSCKASGYTFISFTMHWVKQRPGQGLEWIGYINPNSGYTKYNQKFKDKATLTAGQSSSTAYMQLSSLTSEDSAVYYCTRGGGRGFAYWGQGTLVTVSA
VL: DILMTQSPSSMSVSLGDTVTITCHASQDINSNIGWLQQKPGKSFKALIYHGTNLEDGVPSRFSGSGSGADYSLTISSLESEDFADYYCVQYAQFPFTFGSGTKLEIK
ELISA signal (pep14): 0.08 and 0.23 | ELISA signal (pep15): 0.14 and 0.11 | ELISA signal (pep19): 0.11 and 0.15 | ELISA signal (pep05): 0.15 and 0.17

B2: Chimeric antibody 63A10 (antibody, human IgG1, V domains shown)
VH: B1 VH
VL: B1 VL
notes: also called c63A10A7; chimeric antibody c63A10A7
EC50 [12]: 2.2 nM | EC50 [13]: 696 nM | EC50 [14]: 0.22 nM | Maximum OD450 value [14]: 3.6 OD450 | OD450 nm at 0.0001 nM antibody [15]: 0.07 OD450 | OD450 nm at 0.001 nM antibody [15]: 0.11 OD450 | OD450 nm at 0.01 nM antibody [15]: 0.37 OD450 | OD450 nm at 0.1 nM antibody [15]: 1.05 OD450 | OD450 nm at 1 nM antibody [15]: 3.33 OD450 | OD450 nm at 10 nM antibody [15]: 3.55 OD450 | OD450 nm at 100 nM antibody [15]: 3.55 OD450 | EC50 [16]: 3.8 nM | Maximum mean fluorescence intensity [16]: 11600 MFI
